Tests used:
Test in all cases: FLAG immunoprecipitation and LC/ESI-MS/MS
Details in all cases: HEK293T cells, three biological replicates; read off a plot
MYH9 = molecular target: MYH9
SART3 = molecular target: SART3
HNRNPA2B1 = molecular target: HNRNPA2B1
FUBP3 = molecular target: FUBP3
ILF3 = molecular target: ILF3

## FLAG-tagged DND1 wild-type (Dead End, full-length human protein 1-353) (from UniProt Q8IYX4) R98A
MYH9
  other: log2 fold change: 0.43
SART3
  other: log2 fold change: -2.5
HNRNPA2B1
  other: log2 fold change: -1.3
FUBP3
  other: log2 fold change: -2.5
ILF3
  other: log2 fold change: -1.6

Source: article PMC9537309
